# Non-standard residues stand in square brackets, D forms with d. No end group written: not given here. pGlu = O=C1CC[C@@H](C(=O)O)N1
# B1: APR^GLP1 hexapeptide EFIAWL (aggregation-prone region of glucagon-like peptide 1) (peptide)
# peptide: EFIAWL
# notes: aggregation-prone hexapeptide segment of human glucagon-like peptide 1 (GLP-1); source: synthetic peptide (flow solid-phase synthesis, Fmoc/tBu; RP-HPLC purified)
# B2: APR^Tc5b hexapeptide LYIQWL (synthetic exendin-like APR of the de novo designed Tc5b and E19) (peptide)
# peptide: LYIQWL
# notes: hexapeptide segment of the de novo designed Trp-cage exendin derivatives Tc5b and E19; non-natural, no acidic side chain; also called LYIQWL (Tc5b, E19); source: synthetic peptide (flow solid-phase synthesis, Fmoc/tBu; RP-HPLC purified)
# B3: APR^GLP2 hexapeptide DFINWL (aggregation-prone region of glucagon-like peptide 2) (peptide)
# peptide: DFINWL
# notes: aggregation-prone hexapeptide segment of human glucagon-like peptide 2 (GLP-2); free termini (no terminal protection); also called DFINWL (GLP-2); source: synthetic peptide (flow solid-phase synthesis, Fmoc/tBu; RP-HPLC purified)
# B4: Ac-EFIAWL (N-terminally acetylated APR^GLP1) (peptide)
# peptide: Ac-EFIAWL
# notes: aggregation-prone hexapeptide segment of human GLP-1, N-terminally acetylated; also called Ac-EFIAWL (GLP-1); source: synthetic peptide
# B5: pEFIAWL (APR^GLP1 with N-terminal pyroglutamic acid) (peptide)
# peptide: [pGlu]FIAWL
# notes: aggregation-prone hexapeptide segment of human GLP-1; residue 1 is pyroglutamic acid; Both EFIAWL and pEFIAWL were present in the crystallization samples; the crystal holds pEFIAWL; also called pEFIAWL (GLP-1); APR^GLP1 (in the crystal); source: formed from synthetic EFIAWL by spontaneous ring closure in the crystallization sample (pH ≈ 2, 37 °C)
# Legend:
# [1] = molecular target: the molecule itself; assay: FTIR; 6 mM peptide in water, pH adjusted from 7.2 to 4.2; amide I band 1625–1630 cm^−1; bio-ATR cell
# [2] = molecular target: the molecule itself; assay: far-UV CD; 0.15–0.20 mM peptide in distilled water, physiological pH and above (above pH 5), stirred 500–600 rpm at 37 °C, measured at 25 °C for up to weeks
# [3] = molecular target: the molecule itself; assay: crystal structure; amyloid-like single crystals grown from peptide solutions (water, water/ACN/TFA, water/EtOH or 0.1 M citrate pH 4.0; pH 2-7; 4-37 °C; conditions of each polymorph in Table 1); data at 100 K, Cu Kα
# [4] = molecular target: the molecule itself; assay: far-UV CD; 0.15–0.20 mM peptide in distilled water, acidic pH set with HCl/NaOH, stirred 500–600 rpm at 37 °C, measured at 0–168 h at 25 °C; U to β/β’-type spectral shift
protein,measurement,setting,value
B1,binding result,[1],binds
B2,binding result,[2],binds
B3,binding result,[3],binds
B4,binding result,[4],binds
B5,binding result,[3],binds

# Source: paper PMC10394066, “Polymorphic amyloid nanostructures of hormone peptides involved in glucose homeostasis display reversible amyloid formation” (Nature Communications, 2023)
